Source: patent US20160010082A1

Target: Alexa labeled human IgG
Assay: flow cytometry of E. coli displaying the construct, 300 nM Alexa labeled human IgG; two hour induction; reference CPX display

Substance: eCPX displaying the mini-Z-domain at the N-terminus
- fold higher display level than from CPX: 3 fold
